T1: Peptide C (none)
T1 construct: only Peptide C; also called WZN-1C; T217
T1 peptide: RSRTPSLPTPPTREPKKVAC

T2: Peptide D (phosphothreonine at position 4 of the peptide (pT212 by the filing's name))
T2 construct: also called WZN-1D; pT212
T2 peptide: RSRTPSLPTPPTREPKC

T3: Peptide B (phosphothreonine at position 6 of the peptide (pT217 by the filing's name))
T3 construct: also called WZN-1B; pT217b
T3 peptide: TPSLPTPPTREPKKVAC

T4: Peptide A (phosphothreonine at position 9 of the peptide (pT217 by the filing's name))
T4 construct: also called WZN-1A; pT217a
T4 peptide: RSRTPSLPTPPTREPKC


Experiments:
[1] = biological target: T1, Peptide C; experiment: indirect ELISA, peptide coated on the plate, HRP goat anti-rabbit antibody, TMB, read at 650 nm; axes without titles
Description: (§1) Antibodies were generated and purified. The antibodies were assayed using a standard indirect ELISA protocol. Briefly, peptide antigens corresponding to SEQ ID NOs: 74-81 were diluted to 1 μg/ml in PBS and plated onto a Greiner Bio One Microlon 96 well plate. Peptide antigens were produced by the manufacturer Abcam. WZN-1A and WZN-1B served as targets. WZN-1C, WZN-1D, WZN-1E, WZN-1F, WZN-1G, and WZN-1H served as negative controls. In the peptide antigen sequences, a phosphorylated residue is indicated by (pT) for phosphorylated threonine or (pS) for phosphorylated serine. After blocking with 1% BSA in PBS pH 7.4, antibodies were serially diluted 1 to 4 with an initial concentration of 1 μg/ml. After incubation, unbound antibodies were washed off with 1×TBST and HRP labeled goat anti-rabbit secondary antibody was applied according to the manufacturer's instructions. Subsequently, unbound secondary antibody was washed off with 1×TBST and 3,3′5,5′-tetramethylbenzidine (TMB) was applied for 5 minutes at room temperature and plates were read at 650 nm. Data is seen in FIG. 3.

[2] = biological target: T5, full length Tau (Tau441) (UniProt P10636-8 1-441); experiment: indirect ELISA on Tau441, antibody titrated
T5 construct: also called synthetic full length Tau

[3] = biological target: T2, Peptide D; experiment: indirect ELISA, peptide coated on the plate, HRP goat anti-rabbit antibody, TMB, read at 650 nm; axes without titles
Description: as §1

[4] = biological target: T3, Peptide B; experiment: as above
Description: as §1

[5] = biological target: T4, Peptide A; experiment: as above
Description: as §1

T5 sequence (P10636 other isoform, or with tags, fused parts or gaps limits assumed): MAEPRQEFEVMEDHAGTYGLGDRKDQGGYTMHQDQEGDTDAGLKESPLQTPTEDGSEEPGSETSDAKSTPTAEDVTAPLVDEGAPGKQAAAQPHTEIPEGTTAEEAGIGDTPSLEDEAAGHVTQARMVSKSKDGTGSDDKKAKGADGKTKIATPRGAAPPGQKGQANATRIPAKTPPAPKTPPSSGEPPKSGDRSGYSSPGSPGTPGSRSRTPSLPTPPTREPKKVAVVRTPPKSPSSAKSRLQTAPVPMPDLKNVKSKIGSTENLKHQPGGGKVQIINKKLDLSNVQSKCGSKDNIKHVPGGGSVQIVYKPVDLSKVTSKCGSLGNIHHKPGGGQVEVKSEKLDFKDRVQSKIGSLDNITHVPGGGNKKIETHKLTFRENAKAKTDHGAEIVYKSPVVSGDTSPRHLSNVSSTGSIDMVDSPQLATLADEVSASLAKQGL

Row | Binder | binding result [1] | binding result [2] | other results
1 | Antibody 6 (antibody, V domains shown, Rabbit monoclonal antibody; also called 71H1L2) VH: QSLEESGGRLVTPGTPLTLTCTVSGIDLSTHAMTWVRQAPGKGLEWIGVINPSGSAYYATWVNGRFTISKTSTTVDLKITSPTTGDTAKYFCARDYITAGDYYMDAFDPWGPGTLVTVSS VL: DIVMTQTPASVSAAVGGTVTIKCQASQSISNQLSWYQQKSGQPPKLLIYRASTLASGVPSRFKGSGSGTEFTLTISDLECADAATYYCQQGYNRDNVDNLFGGGTEVVVKG | no binding | no binding (tested: 10^4 ng/mL) | –
2 | PT3 (antibody, V domains shown) VH: EVKLVESGGDLVKPGGSLKLSCAASGFTFSSYAMSWVRQNPEKRLEWVASISKGGNTYYPNSVKGRFTISRDNARNILYLQMSSLRSEDTALYYCARGWGDYGWFAYWGQVTLVTVSA VL: DIKMTQSPSSMYASLGERVTITCKASQDINRYLNWFQQKPGKSPKTLIYRANRLLDGVPSRFSGSGSGQDYSLTISSLDYEDMGIYYCLQYDEFPLTFGDGTKLELK | – | – | EC50 (read off the curve) [2]: ~0.2 µg/mL
3 | Antibody 1 (antibody, V domains shown) VH: QSLEESGGRLVTPGTPLTLTCTVSGFSLSSQKVGWVRQAPGKGLEWIGIINNYGSTYYASWAKGRFTISKTSTTVDLRITSLTAEDTATYFCARDPDGSIVFDIWGPGTLVTVSL VL: AQVLTQTASPVSAAVGGTVTINCQSSQSVVYNNRLSWFQQKPGQPPKLLIYGASTLASGVPSRFKGSGSGTQFTLTISDVQCDDAATYYCLGSYDCSSGDCHAFGGGTEVVVKG | no binding | – | –

Continued, in another order:

Row | binding result [1] | binding result [2] | Binder | other results
4 | no binding | – | Antibody 4 (antibody, V domains shown) VH: QSLEESGGRLVTPGTPLTLTCTVSGFSLNNYKVGWVRQAPGKGLEWIGIINYYSQTYYASWAKGRFTISKTSTTVDLKLTSPTTEDTATYFCARDPDGSIVFDIWGPGTLVTVSL VL: AQVLTQTASPVSAAVGSTVTINCQSSQSVYSNKRLAWFQLKPGQPPKLLIYGASTLASGVPSRFKGSGSGTQFTLTISDVQCDDAATYYCAGGYDCSTGDCWTFGGGTEVVVTG | –
5 | no binding | – | Antibody 3 (antibody, V domains shown) VH: QSVEESGGRLVTPGTPLTLTCTVSGFSLSSYAMIWVRQAPGKGLEWIGFISRSGITYYASWAKGRFTISKTSTTVDLKMTSLTTEDTATYFCAREFGAVGSDYYRDAFNLWGPGTLVTVSS VL: DIVMTQTPSSVSAAVGGTVTINCQASQNIYSNLAWYQQKPGQRPRLLIYGASNLASGVPSRFKGSRSGTEFTLTISDLECADAATYYCQGYDYSTAGAYPFGGGTAVVVKG | binding result [3]: no binding; binding result [4]: no binding; binding result [5]: no binding
6 | no binding | no binding (tested: 10^4 ng/mL) | Antibody 5 (antibody, V domains shown, Rabbit monoclonal antibody; also called 62H10L7) VH: QSVEESGGGLVTPGGTLTLTCTVSGFSLSNYAMSWVRQAPGKGLEWIGFISRSGITYYASWAKGRFTISKTSTTVDLKITSPTTEDTAAYFCAREFGAVGSDYYRDALRLWGPGTLVTVSS VL: DIVMTQTPSSVSAAVGGTVTIKCQASQSIGSNLAWYQQKPGQPPKLLIYGASTLESGVPSRFKGSGSGTEYTLTISDLECADAATYYCQSYYEGSDIGYAFGGGTEVVVEG | –
7 | no binding | no binding (tested: 10^4 ng/mL) | Antibody 2 (antibody, V domains shown, Rabbit monoclonal antibody; also called 30H10L2) VH: QSVEESGGRLVTPGTPLTLTCTVSGFSLSSYAMIWVRQAPGKGLEWIGFISRSGITYYASWAKGRFTISKTSTTVDLKMTSLTTEDTATYFCAREFGAVGSDYYRDAFNLWGPGTLVTVSS VL: DIVMTQTPASVEAAVGGTVTINCQASESINSWLSWYQQKPGQPPNLLIYRASTLASGVPSRFSGGGSGTEYTLTISDLECADAVTYYCQSYYEEDGIGYAFGGGTEVVVEG | –
